Measurements: US20260193375A1 (NORMUNITY, published 2026)

T1: Human LY6K (R&D Systems) (human, UniProt Q17RY6 18-138, limits assumed)
T1 construct: Bought from R&D Systems, coated on ELISA plates; also called hLY6K
T1 sequence: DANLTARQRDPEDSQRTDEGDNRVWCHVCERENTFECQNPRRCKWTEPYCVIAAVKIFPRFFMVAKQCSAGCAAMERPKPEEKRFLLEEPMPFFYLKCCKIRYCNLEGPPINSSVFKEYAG

T2: human LY6E (R&D Systems) (human, UniProt Q16553 21-101, limits assumed)
T2 construct: also called hLY6E
T2 sequence (looked up): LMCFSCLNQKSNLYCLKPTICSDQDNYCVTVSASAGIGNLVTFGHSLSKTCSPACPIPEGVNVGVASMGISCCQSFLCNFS

T3: hLY6K-his (human, UniProt Q17RY6 18-138, limits assumed)
T3 construct: not shown: his tag
T3 sequence: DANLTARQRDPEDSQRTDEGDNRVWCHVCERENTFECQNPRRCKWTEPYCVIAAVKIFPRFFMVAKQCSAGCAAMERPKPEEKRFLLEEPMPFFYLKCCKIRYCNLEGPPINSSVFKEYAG

T4: hLY6K-mFc (human, UniProt Q17RY6 18-138)
T4 construct: not shown: mFc
T4 sequence: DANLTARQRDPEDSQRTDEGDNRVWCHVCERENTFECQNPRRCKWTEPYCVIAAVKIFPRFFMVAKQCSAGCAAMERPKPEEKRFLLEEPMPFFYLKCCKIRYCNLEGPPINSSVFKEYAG

T5: Ly6D
T5 chain: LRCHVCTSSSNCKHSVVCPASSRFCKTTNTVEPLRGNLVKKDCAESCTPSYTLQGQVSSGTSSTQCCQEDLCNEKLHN

T6: Ly6H
T6 chain: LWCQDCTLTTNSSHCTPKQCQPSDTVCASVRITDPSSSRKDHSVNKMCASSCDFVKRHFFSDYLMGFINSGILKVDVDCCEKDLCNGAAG

T7: cell-surface anchored LY6K (human, UniProt Q17RY6 18-138)
T7 construct: the cell is named under assay; also called LY6K on target cells
T7 sequence: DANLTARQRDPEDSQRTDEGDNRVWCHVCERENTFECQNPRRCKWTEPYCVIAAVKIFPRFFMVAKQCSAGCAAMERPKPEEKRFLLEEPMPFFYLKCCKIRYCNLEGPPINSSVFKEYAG

T8: recombinant human LY6K (Wuxi) (human, UniProt Q17RY6 18-138)
T8 construct: Limits of the construct not clearly stated; also called Human LY6K (Wuxi LY^KGLY138(1-38TR)_8His)
T8 sequence: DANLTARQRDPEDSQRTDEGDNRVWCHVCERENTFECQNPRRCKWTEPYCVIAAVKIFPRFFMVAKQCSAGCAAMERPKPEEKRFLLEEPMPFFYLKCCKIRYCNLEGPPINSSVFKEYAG


How the values were obtained:
Human LY6K (R&D Systems) = biological target: T1, Human LY6K (R&D Systems); test: ELISA, coated antigen, IgG1 at 10 ug/ml
[1] = biological target: T9, cynomolgus monkey LY6K (R&D Systems) (cynomolgus monkey); test: ELISA, coated antigen, IgG1 at 10 ug/ml
T9 construct: also called cyLY6K

rat LY6K (R&D Systems) = biological target: T10, rat LY6K (R&D Systems) (rat); test: ELISA, coated antigen, IgG1 at 10 ug/ml
T10 construct: also called rLY6K

human LY6E (R&D Systems) [2] = biological target: T2, human LY6E (R&D Systems); test: ELISA, coated antigen, IgG1 at 10 ug/ml
hLY6K-his = biological target: T3, hLY6K-his; test: SPR (Carterra LSA), mAb captured on anti-human IgG-Fc, antigen as analyte
hLY6K-mFc = biological target: T4, hLY6K-mFc; test: as above
cyLY6K-mFc = cyLY6K-mFc (cynomolgus monkey); test: as above
Ly6D = biological target: T5, Ly6D; test: ELISA, antigen coated on the plate, antibody as human IgG1, anti-human F(ab)2 HRPO
Ly6H = biological target: T6, Ly6H; test: as above
human LY6E (R&D Systems) [3] = biological target: T2, human LY6E (R&D Systems); test: as above
[4] = biological target: T7, cell-surface anchored LY6K; test: flow cytometry on target cells, MFI fitted in Prism
[5] = biological target: T8, recombinant human LY6K (Wuxi); test: ELISA, LY6K coated at 2 ug/mL, HRP-labelled mAb titrated
[6] = biological target: T8, recombinant human LY6K (Wuxi); test: capture ELISA (MSD): antibody coated as capture at 2 µg/mL, recombinant human LY6K titrated, sulfo-tagged polyclonal anti-hLY6K (AF6648) for detection; EC50 is the LY6K concentration

Row | Binder | % of maximum of commercial anti-LY6K mAb on human LY6K (Human LY6K (R&D Systems)) [%] | % of maximum of commercial anti-LY6K mAb on human LY6K [1] [%] | % of maximum of commercial anti-LY6K mAb on human LY6K (rat LY6K (R&D Systems)) [%] | % of maximum of commercial anti-LY6K mAb on human LY6K (human LY6E (R&D Systems) [2]) [%] | Kd (hLY6K-his) [nM] | Kd (hLY6K-mFc) [nM] | Kd (cyLY6K-mFc) [nM] | binding result (Ly6D) | binding result (Ly6H) | binding result (human LY6E (R&D Systems) [3]) | EC50 [4] [nM] | EC50 [5] [nM] | EC50 [6] [µg/mL]
1 | anti-LY6K antibody 2660 (antibody, V domains shown) VH: EVQLVESGGGLVKPGGSLRLSCAASGFTFSDVWMSWVRQAPGKGLEWVGRIKSKTDGGRIDYAAPVKGRFTISRDDSKNTLYLQMNSLKTEDTAVYYCTTVPYSDYWGQGTLVTVSS VL: not shown | 95.1 | 106 | -0.1 | 3.1 | 3.59 | 0.00702 | 0.0518 | no binding (tested: 10 µg/ml) | no binding (tested: 10 µg/ml) | no binding (tested: 10 µg/ml) | 0.364 | 1.57 | 0.0756
2 | anti-LY6K antibody 3705 (antibody, V domains shown) VH: EVQLVESGGGLVHPGRSLRLSCAASGFTFDDYAMHWVRQAPGKGLEWVSGISWKNGKIDYADSVKGRFITSRDNAKNSLYLQMNSLRTEDTALYYCAKDRIEMTFDIWGQGTMVTVSS VL: DIVMTQSPLSSPVTLGQPASISCRSSQSLEHSNGNTYLSWLQQRPGQPPRLLIYKISNRFSGVPDRFSGSGAGTDFTLKISRVEAEDVGVYYCMQTTQFPLTFGGGTKVEIK | 102 | 1.1 | 0 | 7.8 | 6.31 | 0.185 |  |  |  |  | 58.1 | 16.2 | 
3 | anti-LY6K antibody 3074 (antibody, V domains shown) VH: EVQLVESGGGLVHPGRSLRLSCAASGFTFDDYAMHWVRQAPGKGLEWVSGISWKTNKIDYADSVKGRFTTSRDNAKNSLYLQMNSLRTEDTAFYYCAKDRREMTFDIWGQGTMVTVSS VL: DIVMTQTPLSSPVTLGQPASISCRSSQSLEHSNGNTYLSWLQQRPGQPPRLLIYKISNRFSGVPDRFSGSGAGTDFTLKISRVEAEDVGIYYCMQATQFPLTFGGGTKVEIK | 89.2 | -0.2 | -1.2 | 3.4 | 3.23 | 0.164 |  | no binding (tested: 10 µg/ml) | no binding (tested: 10 µg/ml) | no binding (tested: 10 µg/ml) | 164 | 5.2 | 0.315
4 | anti-LY6K antibody 3101 (antibody, V domains shown) VH: EVQLVESGGGLVQPGRSLRLSCAASGFTFDDYAMHWVRQTPGKGLEWVSGITWKSGNIGYADSVKGRFTISRDNAKNSLYLQMNSLRAEDTALYYCAKDTEAGLDYWGQGTLVTVSS VL: not shown | 94.9 | 3 | 0.6 | 2.4 | 1.83 | 0.0264 |  |  |  |  |  |  | 0.163
5 | anti-LY6K antibody 3048 (antibody, V domains shown) VH: EVQLVESGGGLVQPGRSLRLSCAASGFTFDDYAMHWVRQAPGKGLEWVSGITWKSGTIGYADSVKGRFTISRDNAKNSLYLQMNSLRAEDTALYYCAKDSRTGLDYWGQGALVTVSS VL: not shown | 81.2 | 0.1 | 1.5 | 2.5 | 4.7 | 0.0428 |  |  |  |  | 3.33 | 2.65 | 
6 | anti-LY6K antibody 3035 (antibody, V domains shown) VH: EVQLVESGGGLVQPGGSLKLSCAASGFTFSDSTLHWVRQASGKGLEWVGRIRSKANSYATAYAASVKGRFTISRDDSKNTAYLQMNSLKTEDTAVYYCHNWSYGYWGQGTLVTVSS VL: QTVVTQEPSLTVSPGGTVTLTCASSTGAVTSYYYPNWFQQKPGQAPRTVIYSTTNKHSWTPARFSGSLLGGKAALTLSGVLPEDEADYYCLLFYGGAYVFGTGTKVTVL | 65.2 | 71.4 | 1 | 5.6 |  |  |  | no binding (tested: 10 µg/ml) | no binding (tested: 10 µg/ml) | no binding (tested: 10 µg/ml) |  | 2.86 | 0.168
7 | anti-LY6K antibody 3096 (antibody, V domains shown) VH: QVQLVQSGAEVKKPGASVRVSCKASGYTFTGYYIHWVRQAPGQGLEWMGWINPNSGGTNYAQKFQDRVTMTRDTSISTVYMELSRLRSDDTAVFFCAREASNFWGQGTLVTVSS VL: not shown | 35 | 37.2 | 0 | 1 | 63.8 | 1.36 | 9.49 |  |  |  |  |  | 

The remaining binders from weak to strong by Kd (hLY6K-his), led by results:

Row | % of maximum of commercial anti-LY6K mAb on human LY6K (Human LY6K (R&D Systems)) [%] | % of maximum of commercial anti-LY6K mAb on human LY6K [1] [%] | % of maximum of commercial anti-LY6K mAb on human LY6K (rat LY6K (R&D Systems)) [%] | % of maximum of commercial anti-LY6K mAb on human LY6K (human LY6E (R&D Systems) [2]) [%] | Kd (hLY6K-his) [nM] | Kd (hLY6K-mFc) [nM] | Kd (cyLY6K-mFc) [nM] | binding result (Ly6D) | binding result (Ly6H) | binding result (human LY6E (R&D Systems) [3]) | EC50 [4] [nM] | EC50 [5] [nM] | EC50 [6] [µg/mL] | Binder
8 | 43.7 | 57.2 | 2.5 | 4.5 | 7.48 | 0.263 | 1.39 | no binding (tested: 10 µg/ml) | no binding (tested: 10 µg/ml) | no binding (tested: 10 µg/ml) |  |  |  | anti-LY6K antibody 3785 (antibody, V domains shown) VH: QVQLQQSGPGLVKPSQTLSLTCAISGDSVSSNSAAWNWIRQSPSRGLEWLGRTYFRSKWNNDYTLSVKNRITINPDTSKNHFSLQLNSVTPEDTAVYYCAGGGYCNRTYCPDVFDIWGQGTMVTVSS VL: DIQMTQSPSSLSASVGDRVTFTCRSSQSISSYLNWYQQKPGKAPNLLIYVASTLQSGVPSRFSGSGSGTDFTLTISSLQPEDFATYYCQQSYSIPLTFGGGTKVEIK
9 | 67.6 | 66.4 | -1.6 | 3.1 | 5.66 | 0.0505 | 0.379 | no binding (tested: 10 µg/ml) | no binding (tested: 10 µg/ml) | no binding (tested: 10 µg/ml) |  | 3.08 | 0.0568 | anti-LY6K antibody 3741 (antibody, V domains shown) VH: EVQLVESGGGLVKPGGSLRLSCAASGFTFSSYSMNWVRQAPGKGLEWVSSISSSSNYIYYVDSVKGRFTTSRDNAKNSLYLQMNSLRAEDTAVYYCARQEATGNNYYYYYMDVWGKGTTVTVSS VL: DIQMTQSPSSLSASVGDRVTITCRASQSISNYLNWYQQNLGKAPKVLIYAASSLQSGVPSRFSGSGSGTDFTLTISSLQPEDFATYYCQQTYSTPITFGQGTRLEIK
10 | 99.4 | 0.2 | 0.9 | 2.7 | 1.19 | 0.0157 |  |  |  |  | 2.84 | 2.08 |  | anti-LY6K antibody 3481 (antibody, V domains shown) VH: EVQLVESGGGLVQSGRSLRLSCAASGFTFDDYAMHWVRQAPGKGLEWVSGITWKDVTIGYADSVKGRFTISRDNAKNSLYLQMNSLGAEDTALYYCAKDTSDGLDYWGQGTLVTVSS VL: DIVMTQTPLSSPVTLGQPASISCRSSQSLVHSNGNTYLSWLQQRPGQPPRLLIYKISNRFSGVPDRFSGSGAGTDFTLKISRVETEDVGIYYCMQAIQFPYTFGQGTKLEIK
